{
  "source": "patent US20240279309A1",
  "about": "(Molecular Partners, published 2024)",
  "key": {"[1]": {"molecular_target": "T1, biotinylated human CD40 (recombinant human CD40 target) (human, UniProt P25942 21-194, biotinylated (site not stated))", "T1 construct": "The HTRF and SPR texts say only 'biotinylated human CD40'; the Materials list a bought Fc fusion of the extracellular domain of human CD40 (ACRO Biosystems) as the only recombinant CD40; also called hCD40; Recombinant Fc fusion protein of the extracellular domain of human CD40; not shown: IgG1 Fc domain", "T1 sequence (P25942 other isoform, or with tags, fused parts or gaps)": "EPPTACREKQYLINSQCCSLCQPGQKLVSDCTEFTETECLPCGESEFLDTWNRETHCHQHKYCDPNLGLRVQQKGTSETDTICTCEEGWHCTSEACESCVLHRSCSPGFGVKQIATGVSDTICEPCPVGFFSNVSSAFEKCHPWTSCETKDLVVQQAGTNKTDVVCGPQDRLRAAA", "assay": "SPR (ProteOn), biotinylated human CD40 on NLC chip, ankyrin repeat protein injected, 1:1 Langmuir, PBST", "description": "Briefly, biotinylated human CD40 was diluted in PBST (PBS, pH 7.4 containing 0.005% Tween 20®) and coated on two lanes of a NLC chip (BioRad) to levels of respectively 400 and 700 resonance units (RU). The interaction of ankyrin repeat protein and hCD40 was then measured by injecting 200 μl running buffer (PBS, pH 7.4 containing 0.005% Tween 20®) containing serial dilutions of ankyrin repeat proteins covering a concentration range between 50 nM and 3 nM for multi-trace SPR measurements (on-rate measurement), followed by a running buffer flow for at least 10 minutes at a constant flow rate of 100 μl/min (off-rate measurement). The regeneration was performed using 30 μl of 10 mM Glycine-HCl pH 2. The signals (i.e. resonance unit (RU) values) of the interspots and a reference injection (i.e. injection of running buffer only) were subtracted from the RU traces obtained after injection of ankyrin repeat protein (double-referencing). Based on the SPR traces obtained from the on-rate and off-rate measurements, the on- and off-rate of the corresponding ankyrin repeat protein—CD40 interaction was determined using a 1:1 Langmuir kinetic model.\nDissociation constants (KD) were calculated from the estimated on- and off-rates using standard procedures known to the person skilled in the art. KD values of the binding interactions of selected ankyrin repeat proteins with human CD40 were determined to be in the nanomolar range. Table 2 provides the KD values of some selected ankyrin repeat proteins as examples."}, "[2]": {"molecular_target": "T2, CD40 receptor on cells (HEK293 reporter cells expressing CD40; primary human B cells) (human, UniProt P25942 21-277)", "T2 sequence (P25942 21-277)": "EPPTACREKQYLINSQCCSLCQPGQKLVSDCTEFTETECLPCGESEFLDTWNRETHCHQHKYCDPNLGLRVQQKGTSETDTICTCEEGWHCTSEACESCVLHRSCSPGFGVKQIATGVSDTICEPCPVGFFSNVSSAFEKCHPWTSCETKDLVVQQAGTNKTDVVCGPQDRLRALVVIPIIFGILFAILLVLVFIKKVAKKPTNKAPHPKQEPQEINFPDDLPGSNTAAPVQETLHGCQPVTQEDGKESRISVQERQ", "assay": "cell-based or functional assay"}, "[3]": {"molecular_target": "T2, CD40 receptor on cells (HEK293 reporter …)", "assay": "cell-based or functional assay", "remark": "listed apart in the source"}, "[4]": {"molecular_target": "T2, CD40 receptor on cells (HEK293 reporter …)", "assay": "cell-based or functional assay", "remark": "listed apart in the source"}, "[5]": {"molecular_target": "T2, CD40 receptor on cells (HEK293 reporter …)", "assay": "cell-based or functional assay", "remark": "listed apart in the source"}},
  "data": [
    {"binder": "ankyrin repeat domain of SEQ ID NO: 22 (designed binder, Expressed in E. coli from a pQE30 derivative that provides an N-terminal His-tag; purified by its His-tag for SPR) MRGSHHHHHHGSDLGKKLLQAARAGQLDEVRELLKAGADVNAKDEFGQTPLHIAAKSGHLEIVEVLLKAGADVNAKDVYGRTPLHLAAQYGHLEIVEVLLKAGADVNAKDTQGVTPLHVAAFKGHLEIVEVLLKAGADVNAQDKSGKTPADLAARAGHQDIAEVLQKAA", "values": [
      {"measurement": "Kd", "setting": "[1]", "value": 12, "unit": "nM"}
    ]},
    {"binder": "ankyrin repeat domain of SEQ ID NO: 31 (designed binder, Expressed in E. coli from a pQE30 derivative that provides an N-terminal His-tag; purified by its His-tag for SPR) MRGSHHHHHHGSDLGKKLLWAAAAGQLDEVRELLKAGADVNAKDHVGYTPLHIAALAGHLEIVEVLLKAGEDVNAKDHKGRTPLHVAAAVGHLEIVEVLLKAGADVNAKDQQGVTPLHIAAITGHLEIVEVLLKAGADVNAQDKSGKTPADLAARAGHQDIAEVLQKAA", "values": [
      {"measurement": "Kd", "setting": "[1]", "value": 73.5, "unit": "nM"}
    ]},
    {"binder": "SMA104 (SEQ ID NO: 102) (designed binder) MRGSHHHHHHGSDLGEKLLVAALYGQDDEVRELLKAGADVNAKDQWGLTPLHKAALQGHLEIVEVLLKAGADVNAKDERGHTPLHWAARFGHLEIVEVLLKAGADVNAQDQKGYTPADLAALWGHEDIAEVLQKAAGSPTPTPTTPTPTPTTPTPTPTGSDLGKKLLQAARAGQLDEVRELLKAGADVNAKDTWGFTPLHIAAESGHLEIVEVLLKAGADVNAKDVQGRTPLHIAAHSGHLEIVEVLLKAGADVNAKDFRGWTPLHLAAWSGHLEIVEILLKAGADVNAQDKSGKTPADLAARAGHQDIAEVLQKAAGSPTPTPTTPTPTPTTPTPTPTGSDLGKKLLQAARAGQLDEVRELLKAGADVNAKDTWGFTPLHIAAESGHLEIVEVLLKAGADVNAKDVQGRTPLHIAAHSGHLEIVEVLLKAGADVNAKDFRGWTPLHLAAWSGHLEIVEILLKAGADVNAQDKSGKTPADLAARAGHQDIAEVLQKAA", "values": [
      {"measurement": "Efficacy [MFI at highest dose], MFI CD86, human B cells with WT-CHO (no FAP), w/o HSA", "setting": "[2]", "value": 252, "unit": "MFI"},
      {"measurement": "Efficacy at highest dose, % CD86, human B cells with WT-CHO (no FAP), w/o HSA", "setting": "[2]", "value": 46, "unit": "%"},
      {"measurement": "Efficacy [MFI at highest dose], MFI CD86, human B cells with FAP-CHO, w/o HSA", "setting": "[3]", "value": 6270, "unit": "MFI"},
      {"measurement": "Efficacy at highest dose, % CD86, human B cells with FAP-CHO, w/o HSA", "setting": "[3]", "value": 86.8, "unit": "%"},
      {"measurement": "EC50 [nM], % CD86, human B cells with FAP-CHO, w/o HSA", "setting": "[4]", "value": 0.23, "unit": "nM"},
      {"measurement": "EC50 [nM], MFI CD86, human B cells with FAP-CHO, w/o HSA", "setting": "[4]", "value": 0.74, "unit": "nM"},
      {"measurement": "efficacy of CD86 upregulation on human B cells with FAP-CHO, fold against the monovalent F-C format (SMA014)", "setting": "[5]", "value": 2, "unit": "fold"},
      {"measurement": "potency of CD86 upregulation on human B cells with FAP-CHO, fold against the monovalent F-C format (SMA014)", "setting": "[5]", "value": 20, "unit": "fold"}
    ]},
    {"binder": "DARPin® protein #29 (SEQ ID NO: 29) (designed binder, His-tagged as expressed for HTRF and SPR) MRGSHHHHHHGSDLGKKLLQAARAGQLDEVRELLKAGADVNAKDTWGFTPLHIAAESGHLEIVEVLLKAGADVNAKDVQGRTPLHIAAHSGHLEIVEVLLKAGADVNAKDFRGWTPLHLAAWSGHLEIVEILLKAGADVNAQDKSGKTPADLAARAGHQDIAEVLQKAA", "values": [
      {"measurement": "Kd", "setting": "[1]", "value": 73, "unit": "nM"}
    ]}
  ]
}
